Reference: patent publication US9937235B2, “Lipidated peptides as anti-obesity agents” (USTAV ORGANICKE CHEMIE A BIOCHEMIE AKADEMIE VED CR, V.V.I, priority 2012, dated 2018)
Where no end group is shown, it is not given here. [ ]: non-standard residue; d: D form. The star is where a group is joined. 1Nal = N[C@@H](Cc1cccc2ccccc12)C(=O)O; Myristoyl = CCCCCCCCCCCCCC(=O)*; Lauroyl = CCCCCCCCCCCC(=O)*; Nle = CCCC[C@H](N)C(=O)O; Octanoyl = CCCCCCCC(=O)*; Dap = NC[C@H](N)C(=O)O

T1: rat PrRP receptor in RC-4B/C cells (rat, UniProt Q64121 1-370)
T1 construct: whole, on cells; also called the rat receptor; GPR10
T1 sequence (looked up): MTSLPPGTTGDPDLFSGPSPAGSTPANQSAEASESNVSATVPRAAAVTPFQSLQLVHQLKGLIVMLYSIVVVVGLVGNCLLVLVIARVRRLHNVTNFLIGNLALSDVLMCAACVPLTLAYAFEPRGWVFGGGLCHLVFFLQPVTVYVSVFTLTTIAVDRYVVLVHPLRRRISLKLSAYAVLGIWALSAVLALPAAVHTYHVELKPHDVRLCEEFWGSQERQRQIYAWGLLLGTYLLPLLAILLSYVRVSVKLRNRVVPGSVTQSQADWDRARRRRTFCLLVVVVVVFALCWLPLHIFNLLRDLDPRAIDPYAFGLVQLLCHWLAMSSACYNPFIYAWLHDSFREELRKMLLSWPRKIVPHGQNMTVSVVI


Assays:
[1] = biological target: T1, rat PrRP receptor in RC-4B/C cells; experiment: competition with 125I-rat PrRP31 on RC-4B/C cells; Ki by Cheng-Prusoff
Experimental: (§1) The rat pituitary cell line RC-4B/C (ATCC, Manassas, USA) was grown on 24-well plates which had their bottom coated with polyethyleneimine. The cells were grown to the optimal density of 300-450 thousand per well.
(§2) Plates were incubated for 60 minutes at room temperature. After incubation, the cells were solubilized in 0.1 mol/l solution of NaOH and the radioactivity bound to the cells was counted using a γ-counter. The experiments were performed in duplicate and repeated at least three times.
For evaluation of competitive binding experiments, the program Graph Pad Prism Software (San Diego, Calif., USA) was used. A method of nonlinear regression assuming one-site binding was used.

[2] = biological target: T1, rat PrRP receptor in RC-4B/C cells; experiment: competition with 125I-rat PrRP31 on RC-4B/C cells
Experimental: as §1, §2

Row | Binder | Ki [1] | % of PrRP31 binding [2]
1 | [Dap](Lauroyl)RAHQHS[Nle]ETRTPDINPAWYTGRGIRPVGRF-NH2 (N-terminus assumed; SMILES CCCCCCCCCCCC(=O)NC[C@H](N)C(=O)N[C@@H](CCCNC(=N)N)C(=O)N[C@@H](C)C(=O)N[C@@H](Cc1c[nH]cn1)C(=O)N[C@@H](CCC(N)=O)C(=O)N[C@@H](Cc1c[nH]cn1)C(=O)N[C@@H](CO)C(=O)N[C@@H](CCCC)C(=O)N[C@@H](CCC(=O)O)C(=O)N[C@H](C(=O)N[C@@H](CCCNC(=N)N)C(=O)N[C@H](C(=O)N1CCC[C@H]1C(=O)N[C@@H](CC(=O)O)C(=O)N[C@H](C(=O)N[C@@H](CC(N)=O)C(=O)N1CCC[C@H]1C(=O)N[C@@H](C)C(=O)N[C@@H](Cc1c[nH]c2ccccc12)C(=O)N[C@@H](Cc1ccc(O)cc1)C(=O)N[C@H](C(=O)NCC(=O)N[C@@H](CCCNC(=N)N)C(=O)NCC(=O)N[C@H](C(=O)N[C@@H](CCCNC(=N)N)C(=O)N1CCC[C@H]1C(=O)N[C@H](C(=O)NCC(=O)N[C@@H](CCCNC(=N)N)C(=O)N[C@@H](Cc1ccccc1)C(N)=O)C(C)C)[C@@H](C)CC)[C@@H](C)O)[C@@H](C)CC)[C@@H](C)O)[C@@H](C)O, analog of rat PrRP31) [analog no. 3] | 1.12 nM | 440%
2 | [Dap]RAHQHS[Nle]ETRTPDINPAWYTGRGIRPVGRF-NH2 (N-terminus assumed; SMILES CCCC[C@H](NC(=O)[C@H](CO)NC(=O)[C@H](Cc1c[nH]cn1)NC(=O)[C@H](CCC(N)=O)NC(=O)[C@H](Cc1c[nH]cn1)NC(=O)[C@H](C)NC(=O)[C@H](CCCNC(=N)N)NC(=O)[C@@H](N)CN)C(=O)N[C@@H](CCC(=O)O)C(=O)N[C@H](C(=O)N[C@@H](CCCNC(=N)N)C(=O)N[C@H](C(=O)N1CCC[C@H]1C(=O)N[C@@H](CC(=O)O)C(=O)N[C@H](C(=O)N[C@@H](CC(N)=O)C(=O)N1CCC[C@H]1C(=O)N[C@@H](C)C(=O)N[C@@H](Cc1c[nH]c2ccccc12)C(=O)N[C@@H](Cc1ccc(O)cc1)C(=O)N[C@H](C(=O)NCC(=O)N[C@@H](CCCNC(=N)N)C(=O)NCC(=O)N[C@H](C(=O)N[C@@H](CCCNC(=N)N)C(=O)N1CCC[C@H]1C(=O)N[C@H](C(=O)NCC(=O)N[C@@H](CCCNC(=N)N)C(=O)N[C@@H](Cc1ccccc1)C(N)=O)C(C)C)[C@@H](C)CC)[C@@H](C)O)[C@@H](C)CC)[C@@H](C)O)[C@@H](C)O, analog of rat PrRP31; also called [Dpr^1]PrRP31) [analog no. 1] | 3.74 nM | 132%
3 | [Dap](Octanoyl)RAHQHS[Nle]ETRTPDINPAWYTGRGIRPVGR[1Nal]-NH2 (N-terminus assumed; SMILES CCCCCCCC(=O)NC[C@H](N)C(=O)N[C@@H](CCCNC(=N)N)C(=O)N[C@@H](C)C(=O)N[C@@H](Cc1c[nH]cn1)C(=O)N[C@@H](CCC(N)=O)C(=O)N[C@@H](Cc1c[nH]cn1)C(=O)N[C@@H](CO)C(=O)N[C@@H](CCCC)C(=O)N[C@@H](CCC(=O)O)C(=O)N[C@H](C(=O)N[C@@H](CCCNC(=N)N)C(=O)N[C@H](C(=O)N1CCC[C@H]1C(=O)N[C@@H](CC(=O)O)C(=O)N[C@H](C(=O)N[C@@H](CC(N)=O)C(=O)N1CCC[C@H]1C(=O)N[C@@H](C)C(=O)N[C@@H](Cc1c[nH]c2ccccc12)C(=O)N[C@@H](Cc1ccc(O)cc1)C(=O)N[C@H](C(=O)NCC(=O)N[C@@H](CCCNC(=N)N)C(=O)NCC(=O)N[C@H](C(=O)N[C@@H](CCCNC(=N)N)C(=O)N1CCC[C@H]1C(=O)N[C@H](C(=O)NCC(=O)N[C@@H](CCCNC(=N)N)C(=O)N[C@@H](Cc1cccc2ccccc12)C(N)=O)C(C)C)[C@@H](C)CC)[C@@H](C)O)[C@@H](C)CC)[C@@H](C)O)[C@@H](C)O, analog of rat PrRP31) [analog no. 8] | 39.2 nM | 13%

Now from value to binder:

Row | Ki [1] | % of PrRP31 binding [2] | Binder
4 | 2.86 nM | 172% | [Dap](Octanoyl)RAHQHS[Nle]ETRTPDINPAWYTGRGIRPVGRF-NH2 (N-terminus assumed; SMILES CCCCCCCC(=O)NC[C@H](N)C(=O)N[C@@H](CCCNC(=N)N)C(=O)N[C@@H](C)C(=O)N[C@@H](Cc1c[nH]cn1)C(=O)N[C@@H](CCC(N)=O)C(=O)N[C@@H](Cc1c[nH]cn1)C(=O)N[C@@H](CO)C(=O)N[C@@H](CCCC)C(=O)N[C@@H](CCC(=O)O)C(=O)N[C@H](C(=O)N[C@@H](CCCNC(=N)N)C(=O)N[C@H](C(=O)N1CCC[C@H]1C(=O)N[C@@H](CC(=O)O)C(=O)N[C@H](C(=O)N[C@@H](CC(N)=O)C(=O)N1CCC[C@H]1C(=O)N[C@@H](C)C(=O)N[C@@H](Cc1c[nH]c2ccccc12)C(=O)N[C@@H](Cc1ccc(O)cc1)C(=O)N[C@H](C(=O)NCC(=O)N[C@@H](CCCNC(=N)N)C(=O)NCC(=O)N[C@H](C(=O)N[C@@H](CCCNC(=N)N)C(=O)N1CCC[C@H]1C(=O)N[C@H](C(=O)NCC(=O)N[C@@H](CCCNC(=N)N)C(=O)N[C@@H](Cc1ccccc1)C(N)=O)C(C)C)[C@@H](C)CC)[C@@H](C)O)[C@@H](C)CC)[C@@H](C)O)[C@@H](C)O, analog of rat PrRP31; also called [Dpr(oct)^1]PrRP31) [analog no. 2]
5 | 60.1 nM | 8% | [Dap]RAHQHS[Nle]ETRTPDINPAWYTGRGIRPVGR[1Nal]-NH2 (N-terminus assumed; SMILES CCCC[C@H](NC(=O)[C@H](CO)NC(=O)[C@H](Cc1c[nH]cn1)NC(=O)[C@H](CCC(N)=O)NC(=O)[C@H](Cc1c[nH]cn1)NC(=O)[C@H](C)NC(=O)[C@H](CCCNC(=N)N)NC(=O)[C@@H](N)CN)C(=O)N[C@@H](CCC(=O)O)C(=O)N[C@H](C(=O)N[C@@H](CCCNC(=N)N)C(=O)N[C@H](C(=O)N1CCC[C@H]1C(=O)N[C@@H](CC(=O)O)C(=O)N[C@H](C(=O)N[C@@H](CC(N)=O)C(=O)N1CCC[C@H]1C(=O)N[C@@H](C)C(=O)N[C@@H](Cc1c[nH]c2ccccc12)C(=O)N[C@@H](Cc1ccc(O)cc1)C(=O)N[C@H](C(=O)NCC(=O)N[C@@H](CCCNC(=N)N)C(=O)NCC(=O)N[C@H](C(=O)N[C@@H](CCCNC(=N)N)C(=O)N1CCC[C@H]1C(=O)N[C@H](C(=O)NCC(=O)N[C@@H](CCCNC(=N)N)C(=O)N[C@@H](Cc1cccc2ccccc12)C(N)=O)C(C)C)[C@@H](C)CC)[C@@H](C)O)[C@@H](C)CC)[C@@H](C)O)[C@@H](C)O, analog of rat PrRP31) [analog no. 7]
6 | 2.95 nM | 167% | [Dap](Myristoyl)RAHQHS[Nle]ETRTPDINPAWYTGRGIRPVGR[1Nal]-NH2 (N-terminus assumed; SMILES CCCCCCCCCCCCCC(=O)NC[C@H](N)C(=O)N[C@@H](CCCNC(=N)N)C(=O)N[C@@H](C)C(=O)N[C@@H](Cc1c[nH]cn1)C(=O)N[C@@H](CCC(N)=O)C(=O)N[C@@H](Cc1c[nH]cn1)C(=O)N[C@@H](CO)C(=O)N[C@@H](CCCC)C(=O)N[C@@H](CCC(=O)O)C(=O)N[C@H](C(=O)N[C@@H](CCCNC(=N)N)C(=O)N[C@H](C(=O)N1CCC[C@H]1C(=O)N[C@@H](CC(=O)O)C(=O)N[C@H](C(=O)N[C@@H](CC(N)=O)C(=O)N1CCC[C@H]1C(=O)N[C@@H](C)C(=O)N[C@@H](Cc1c[nH]c2ccccc12)C(=O)N[C@@H](Cc1ccc(O)cc1)C(=O)N[C@H](C(=O)NCC(=O)N[C@@H](CCCNC(=N)N)C(=O)NCC(=O)N[C@H](C(=O)N[C@@H](CCCNC(=N)N)C(=O)N1CCC[C@H]1C(=O)N[C@H](C(=O)NCC(=O)N[C@@H](CCCNC(=N)N)C(=O)N[C@@H](Cc1cccc2ccccc12)C(N)=O)C(C)C)[C@@H](C)CC)[C@@H](C)O)[C@@H](C)CC)[C@@H](C)O)[C@@H](C)O, analog of rat PrRP31; also called myristoylated analog [Dpr^1 Nal^31]PrRP31 (No. 9)) [analog no. 9]
